Experimental findings from patent US9713649 are described below.

The target in this test is Prostate specific membrane antigen (PSMA) (UniProt Q04609). Nature of the test: competitive binding on LNCaP or PC3-PIP cells; displacement of 12 nM N-[N-[(S)-1,3-dicarboxypropyl]carbamoyl]-S-[3H]-methyl-L-cysteine, scintillation counting.

By IC50 is commonly meant the concentration at which inhibition is half-maximal.

Chain of Prostate specific membrane antigen (PSMA) (Q04609 whole entry): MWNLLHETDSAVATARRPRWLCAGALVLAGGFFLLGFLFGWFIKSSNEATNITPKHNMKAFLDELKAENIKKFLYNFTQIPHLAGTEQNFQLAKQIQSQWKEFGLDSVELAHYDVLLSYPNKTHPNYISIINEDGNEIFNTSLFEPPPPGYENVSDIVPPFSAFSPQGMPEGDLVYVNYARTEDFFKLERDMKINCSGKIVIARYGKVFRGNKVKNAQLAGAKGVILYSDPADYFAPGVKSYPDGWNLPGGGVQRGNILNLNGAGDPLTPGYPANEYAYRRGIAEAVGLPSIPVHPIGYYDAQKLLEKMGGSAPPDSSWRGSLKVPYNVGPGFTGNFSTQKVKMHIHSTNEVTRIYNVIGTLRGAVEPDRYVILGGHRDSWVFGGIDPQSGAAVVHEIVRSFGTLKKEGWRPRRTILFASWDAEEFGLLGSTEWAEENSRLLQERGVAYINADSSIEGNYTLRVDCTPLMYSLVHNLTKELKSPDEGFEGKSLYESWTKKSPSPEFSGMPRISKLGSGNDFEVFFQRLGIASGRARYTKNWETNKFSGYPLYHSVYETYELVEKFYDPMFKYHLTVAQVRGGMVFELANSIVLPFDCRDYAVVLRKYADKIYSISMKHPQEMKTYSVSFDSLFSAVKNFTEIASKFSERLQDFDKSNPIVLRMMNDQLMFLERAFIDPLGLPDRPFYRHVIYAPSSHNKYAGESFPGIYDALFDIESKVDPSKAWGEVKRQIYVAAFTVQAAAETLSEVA

For “ZJ-MCC-Ahx-dEdEdEG (Compound 1) (peptide)”, the 50% inhibitory concentration (IC50) was determined as 2.2 nM.
